According to the DeepSol protein solubility set:

Assay: soluble on expression in E. coli; label from the status in PepcDB or PDB records

Sequence	soluble on expression in E. coli
MTRIAIALAQDFADWEPALLAAAARSYLGVEIVHATPDGMPVTSMGGLKVTPDTSYDALDPVDIDALVIPGGLSWEKGTAADLGGLVKRFRDRDRLVAGICAAASALGGTGVLNDVAHTGNALASHKAYPAYRGEAHYRDQPRAVSDGGVVTAAGSAPVSFAVEILKSLGLFGPEAEAELQIFAAEHR	soluble
MSLEQLATTSQQEILAERPQLTTKIAVDLDVKGIKEKDEDAWQNVQIYLAQINNEYADGSERYQYLVQTTVDKALRAKGYYNSQYQFVKTVSAEQKPLLTLNVQLDNQKVTIDEVDIQLQGDANTDEDFIELKKTAPNQGDSLAHNAYDDFKSHIEGLAFKKGYFDGQWLYHRLEVYPQNHSVDWRLAYDSGKRYRYGEINFIDNQIKEEYLTNILKIAPQQYYYASDLSLMTADYLSSNWFSSVLVEPKLNEKAKLVDLKIFFQPKKKNKVEIGAGFATQLGARLQLNWKKPWLNERGHSIDSRTYLSLPEQTLELGYNVPLRQNPLHYYYQFSGSLEHQNQQDTKSIAGSFGLQRFWTHETGWSFSAGIKSRYDSFTQANDKHKTLLVYPTAALNRTQTDGNRFPLWGDSQRITVNWGAKIFGSDVSFYSWKASSTWVRTYLDRHRLFLRGEVGQVHTKDFHQIPPTLRYFAGGDMSIRGFAYKSISPKEPKSGKLIGGSHLVTTTAEYQYRIYPDWWAAIFYDTGLVSDKFDHRALHSGAGVGVRWISPIGAIKFDIATPVKSPNNKRGVQFYIGLGSEEGHHHHHH	not soluble
SLRASDDKALQYAIAEITEIATGFGLDFYPMRYEICPAEIIYTFGAYGMPTRFSHWSFGKQFFRMKLQYDLGLSKIYELVINSDPCYAFLLDTNSLIQNKLIVAHVLAHCDFFKNNIRFSNTKRDMVESMSATAERVKAYEHKYGKEEVETFLDAVLAIQEHIDPSLMRPKLAWSIDDLEEEEVEKKKVSQYDDLWNLDNRNKKRERSNVRKKKKIPPQPEKDLLLFIEEYSRELEDWQRDILTMMREEMLYFWPQLETKIMNEGWASYY	soluble
MGSDKIHHHHHHMNRVILFHFHFFKNAGSAVDYILEKNFGDRFVKKEFKLWPYYENIKEVIKWIENESDAVAFSSHTARLFDSTLLERRGIKIIPIIFVRHPIIRIHSAYHYERKQVDIFRPGPVIARNTDFKGYVEIRLAIPRQEFNVSNFHVFRLADMLHGEKNMKPLEKALIALKRLPFIGLVEEFEKSMTKLEETVREYFPEFKASVIRTNVQFSPDMPLEERLKIIKNEVGKDFYKKLMEINEEDMVLWEKVVDMYKEGF	not soluble
MAQGYRRDHNHHHESGYKRPSDPGGDLPSDKRHRPPPAEGRTLSADRRLYERHFPLYKQPLELGCFSLDARRNFFNDHRQLRYYVEPRRSPDFNLRDGYTSRFIKRDDGVKEKLDHMLRWILENRHKMQNSNSSSCALGVDFITWRGHLTKVLTTPYETQEGWMMAACKFRGSIYISEVETEQARENRETRSERQEEMMYWGYKFEQYTCADGADGTPDPGGVVNTNEAFCTVVQTRLADQSQTLRV	not soluble
MGSDKIHHHHHHMVNFSYRVFAAVVEKKTFFHAAESLNVTPSAVSHSISQLENELGFPLFLRNHSGVELTNDGKTVLPVIQAILNTEEELYQVSASIKGLNSGRIRIGAFSSVCINWLPTIIRRFKNQYPQVEVTVFQGNFNQIADGVSNGSIDIGFSSLPVDDKLLVEPLIKDRIYCVAPSDFVPKDKMNVTNQDIGRRRFILQQIDYDRDTKKALDQYNVTPNSLTYSIDDQSILSMVESGLGLGILPELALKKLSGNVHIYPFDKNFARTICLVTNKNLAQAPSTKRMLKEINSFLRSNYKNQFLG	not soluble
MKPVKVGICGLGTVGGGTFNVLQRNAEEIARRAGRGIEVAQIAVRTPNPNCQIAGTPTTSDVFAVATNPEIDIVVELIGGYTIARDLVLKAIEHGKHVVTANKALIAVHGNEIFAKAREKGVIVAFEAAVAGGIPVIKAIREGLSANRINWVAGIINGTGNFILTEMREKGRTFPDVLAEAQALGYAEADPTFDVEGIDAAHKLTILASIAFGIPLQFDKAYTEGITKLTTADVNYAEALGYRIKHLGVARSTAQGIELRVHPTLIPADRLIANVNGVMNAVMVNGDASGSTLFYGAGAGMEPTASSVVADLVDVVRAMTSDPENRVPHLAFQPDSLSAHPILPIEACESAYYLRIQAKDHPGVLAQVASILSERGINIESIMQKEVEEHDGLVPMILLTHRVVEQRINDAIQALEALQDVVGPVVRIRVEHLN	not soluble
MGSDKIHHHHHHMDVLQKEIDEVYATHPTAHEALDNGIVEQHQQFVRSLTEVNGGCAVISDLSNRKSYVTVHPWANFLGLTPEEAALSVIDSMDEDCIYRRIHPEDLVEKRLMEYKFFQKTFSMSPGERLKYRGRCRLRMMNEKGVYQYIDNLVQIMQNTPAGNVWLIFCLYSLSADQRPEQGIYATITQMERGEVETLSLSEEHRNILSEREKEILRCIRKGLSSKEIAATLYISVNTVNRHRQNILEKLSVGNSIEACRAAELMKLL	not soluble
MIYSVGNRLGNKLTGIEKAMINRHNLFKNHSITSKLIFASWSPRLHFNASLFQIEDDDILSLYDVLQDSINIKSIHKDWITHWTKECNYTLKFIENTNDIKIYEKSNYRMYVHFNDSNYQHLDYINHFDVNQRKIRRDLYDSRGFLSCSRTLTTNQKVVCEHYYTPEGTIKFQKFFNPELENSQSQLIIYNTDSQLKYFNNDQELLAFAIEKLYKNGDIFLSDKNINTAPIFNNTSETIPVLAVLHSTHVKNIDMVYESDIKNTYKHVFNNLNRYSGIIVSTKQQQLDISARINNEIPVHTIPVGYIDEHFTNLKRNNHSINNNKIISVARYSPEKQLNHQIELVSKLIKEFPNIQLHLYGFGKEEEKYKQLITEYNLENNVFLRGFRRNLSAEIQDAYMSLITSNMEGFNLGLLETITEGIPPVGYNSKYGPSELILNNENGYLINKNDKDELYNRVRNLLLDKTLRDTFSQECIKHSKAFSSKIVMKLWEDRFSTINSSYE	not soluble
MSLEALLSEDVKIIASALKAAIDKDRKSTSKREAETGIRYYNHENDIMNNRIFYVDDEGVLREDKYASNVRIPHGFFPEIVDQKTQYLLSNPVEYETENEELKEYLAEYYNSEFQVVLQELVEGSSQKGFEYVYARTNAEDRLCFQVADSLNVFGVYNEYNELQRICRHYITEIEKDGETVDIHHAEVWTDQNVYFFVAEDNKDYELDEAEPINPRPHVLAVDSDNESLLQRSYGQIPFYRLSNNKQETTDLKSIKALIDDYDLMNCFLSNNLQDFAEAIYVVSGFQGDDLSKLRQNVKSKKVVGTGSDGGLDVKTVTIPTEGRKTKMEIDKENIYKFGMAFDSTQVGDGNITNIVIKARYTLLNMKANKTEARLRALLEWMNKLVIDDINRRYTKAFDPTEVSFTFTREVMVNETDIVNNEKTEAETRKIILESILQVAPRLDDDNVLRLICEQFDLDWEDVKEALEEAEYTQGLTDNTDEEETAEGHHHHHH	soluble
MGSDKIHHHHHHAKIRAKNADSYPFMYKNYPFLRPWVDSLNQAHALRDTFVLNPEGIRLHAYYIAAPQPTKKTAVIVHGYTDNAIRMFMIGYLYNHDLQYNVLLPDLQHQGESGGPAIQMGWKDRLDVMQWMHIANQIYGDSTQMVVHGISMGGATTMMVSGEAQPYFVKCFVEDCGYTSVWDEFSHELKSSFHLPSFPLMNTTSWLCQKKYGWNFEEASSLNQVKKSHLPMFFIHGDKDTYVPTWMVYPLYEAKSAPKQLWIVPGAAHAVSYKENKEEYTRKVKEFTDRYIH	not soluble
MGSDKIHHHHHHMEIKCIITDDEPIARKGLRRHIGKIDFLTIVGECEDAIQLNNMLNSVQADLLFLDIEMPDMSGLDFLESAQNAPKVIITSAYERYALRGYEFDVVDYLLKPISFSRFLKSVNKAHALMESTSKSEEPAYIFVKTEKQLKRLYLKEIQFIEGMENYIVIHTLTSKEIVHLRLKSIQETLPAQIFMQVHRSFIVNLSYVQAIEGNLLIIGEHKIPVSRPLREEVYKSIVNNQLIQR	not soluble
MATAAVTDDIEEGARKAPALIRYLAEGEYVTRRYVSQGAEMNTGEYADYECVVRDGMPIRDHFTLDVHGFALGRHRSAVADFHDKPTVDALYLDEVEELVTRLCGAARTAAQGWMIRTSADLTERAKQKVQGYQHSGGIQPPAGEAHVDYNEVTGRRAAARVYADRFPDGPGYKRYICFSLWRTFSPGPQDWPLAVCDGRTVRDEETASNTLFVVDEFPVGDALTAPVEGEDQMIAATIFRHRDRHRWWYFSNMAADDVLLFKFQDSDHSVTWRCPHTAFHDTSLPDAKTRSSIEVRCIAFFELEHHHHHH	soluble
MWRKLTIIVVLLCLAGYAAYEQFGKSDQAAQGEQEKSEAAMKEMIASNGIEIGKSAPDFELTKLDGTNIKLSDLKGKKVILNFWATWCGPCQQEMPDMEAFYKKHKDNVEILAINYTPSEKGGGVEKVSNFAKEKGITFPILLDKNIDVTTAYKVITIPTSYFIDTKGVIQDKFIGPMTQKEMEKRIAKLK	not soluble
MSPLNFTHILTQTVDELSESESYKGLFHQHKDGEPLPSPRVLCDVIELARSILFPGYYGNSTVNSRTINYHIGVNVEKLFNLLTEQILAGLCFGNGDRCDECTEAKREEAARLAAKFISKLPHLRRVLATDVEAAYNGDPAAQSFGEVIFCYPAIKAISNYRIAHELLELGVPLIPRIITEMAHSETGIDIHPGARIGTHFTIDHGTGVVIGATSIIGNNVKLYQGVTLGARSFPLDADGKPIKGIPRHPILEDNVIVYSNATILGRITIGRDATVGGNIWVTENIPAGARIVQTKAKKLEHHHHHH	soluble
MGSDKIHHHHHHVERRIFGLENEYGVTCTFRGQRRLSPDEVARYLFRRVVSWGRSSNVFLRNGARLYLDVGSHPEYATPECDNLLDLVAHDKAGERILEGLQIDAEQRLREEGIAGDIYLFKNNTDSAGNSYGCHENYLVARHGEFGKLADVLIPFLVTRQIICGAGKVLQTPRGALYCVSQRAEHIWEGVSSATTRSRPIINTRDEPHADAERFRRLHVIVGDSNMSETTTLLKLASTDLVLRMIEANVPMRDFTLENPIRAIREISHDMTGRRKVRLANGREASALEIQREYLERVQSFVDRTGTDATGKRVLELWQRTLEAVESGNLDLVAREIDWVAKYKLLERYRAKHGLSLSSPRVAQLDLTYHDIHRDRGLFYLLQQRGQMERVVSDLRIFEAKSVPPQTTRARLRGEFIKKAQEKRRDFTVDWVHLKLNDQAQRTVLCKDPFKAVDERVEKLIAGM	not soluble
MSLKKLLVIRNDKIGDFMLAWPSFAMLKASLPDCHITALVPKYTAALAELCPWIDAVIIDPGQQADKAQHKQLVQTVKAQQFDASINLFSTMYNALLVWKARIPYRLAPATKLAQIFYQHRIKQKRSQSAKPEYEYNLDLVRAFLRDIGQPIIEPNAPYLTFPAEQLAAQRSKLAEQLDIGPDKAWLFVHAGSGGSANNLSLEQYCELVTGVMDEHKQVVLTAGPGEEEKAAQLQSLLAEQGVLAALYAKNDGLVDFTRSLACAQLFIAGSTGPLHIAAALDVPTVGFFPAKRSATPLRWRPLNSQGKHIAFCPPPADDKANQENMGRIDMKSVLTELAPWLRSVQLEGHHHHHH	soluble
MNELDGIKQFTTVVADSGDIESIRHYHPQDATTNPSLLLKAAGLSQYEHLIDDAIAWGKKNGKTQEQQVVAACDKLAVNFGAEILKIVPGRVSTEVDARLSFDKEKSIEKARHLVDLYQQQGVEKSRILIKLASTWEGIRAAEELEKEGINCNLTLLFSFAQARACAEAGVFLISPFVGRIYDWYQARKPMDPYVVEEDPGVKSVRNIYDYYKQHHYETIVMGASFRRTEQILALTGCDRLTIAPNLLKELQEKVSPVVRKLIPPSQTFPRPAPMSEAEFRWEHNQDAMAVEKLSEGIRLFAVDQRKLEDLLAAKL	soluble
MIMGLENLKPAKGSVKKIKRVGRGQGSGMGKTATRGGKGQTARTGYKAKRGFEGGQQPLQRRLPKIGFRTKDSHIYSINVEKNEAIKNLEEITFSSLRALHHFPLYIEGVKLIGKDAKNLASKIKDERIKTSGQKLEHHHHHH	soluble
